Each block holds one binder with its values, some of them ahead of it.
Target: T1, GST-tagged wild-type NRDE2 (human, UniProt Q9H7Z3 1-1164)
T1 sequence: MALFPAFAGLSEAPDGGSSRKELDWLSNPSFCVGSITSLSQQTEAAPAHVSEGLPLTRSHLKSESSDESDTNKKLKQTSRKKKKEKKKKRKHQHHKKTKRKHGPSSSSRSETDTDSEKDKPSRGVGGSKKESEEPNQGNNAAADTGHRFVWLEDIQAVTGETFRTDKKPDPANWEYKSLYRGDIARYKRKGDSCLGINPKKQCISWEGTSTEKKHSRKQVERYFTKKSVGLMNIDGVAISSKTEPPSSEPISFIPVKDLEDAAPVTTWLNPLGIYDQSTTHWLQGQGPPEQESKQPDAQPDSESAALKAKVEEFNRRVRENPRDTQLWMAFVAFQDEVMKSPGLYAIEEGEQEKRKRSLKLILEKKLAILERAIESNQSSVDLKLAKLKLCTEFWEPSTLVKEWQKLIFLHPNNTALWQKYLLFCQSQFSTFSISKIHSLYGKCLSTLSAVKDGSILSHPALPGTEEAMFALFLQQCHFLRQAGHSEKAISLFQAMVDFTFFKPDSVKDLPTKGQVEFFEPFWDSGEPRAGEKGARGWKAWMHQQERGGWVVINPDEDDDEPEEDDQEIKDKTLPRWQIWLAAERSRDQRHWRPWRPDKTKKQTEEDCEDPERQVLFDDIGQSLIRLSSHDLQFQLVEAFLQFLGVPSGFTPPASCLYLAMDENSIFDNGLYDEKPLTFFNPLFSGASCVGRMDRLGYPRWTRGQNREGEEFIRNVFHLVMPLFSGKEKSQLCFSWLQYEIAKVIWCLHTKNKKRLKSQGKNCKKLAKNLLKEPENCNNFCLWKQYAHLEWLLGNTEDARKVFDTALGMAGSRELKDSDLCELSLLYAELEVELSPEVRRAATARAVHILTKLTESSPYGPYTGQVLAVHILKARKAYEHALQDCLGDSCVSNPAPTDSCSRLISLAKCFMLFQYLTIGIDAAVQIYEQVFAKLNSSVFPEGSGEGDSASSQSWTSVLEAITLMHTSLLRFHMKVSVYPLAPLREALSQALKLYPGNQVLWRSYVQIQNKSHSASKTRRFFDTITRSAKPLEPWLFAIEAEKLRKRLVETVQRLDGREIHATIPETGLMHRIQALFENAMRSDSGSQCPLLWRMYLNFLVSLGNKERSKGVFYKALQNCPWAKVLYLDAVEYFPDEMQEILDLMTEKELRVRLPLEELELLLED
Assay: pull-down

- binding result: binds
B1: His-tagged CK2B (natural protein)
chain: not shown

- binding result: binds
B2: His-tagged CK2A2 (natural protein)
chain: MPGPAAGSRARVYAEVNSLRSREYWDYEAHVPSWGNQDDYQLVRKLGRGKYSEVFEAINITNNERVVVKILKPVKKKKIKREVKILENLRGGTNIIKLIDTVKDPVSKTPALVFEYINNTDFKQLYQILTDFDIRFYMYELLKALDYCHSKGIMHRDVKPHNVMIDHQQKKLRLIDWGLAEFYHPAQEYNVRVASRYFKGPELLVDYQMYDYSLDMWSLGCMLASMIFRREPFFHGQDNYDQLVRIAKVLGTEELYGYLKKYHIDLDPHFNDILGQHSRKRWENFIHSENRHLVSPEALDLLDKLLRYDHQQRLTAKEAMEHPYFYPVVKEQSQPCADNAVLSSGLTAAR

— PMC11099347 (Cell Genomics, 2024)
